Assay results as given in US7109167.
Positions of bridges follow the written chain, without caps; N, C: chain ends. No end group written: not given here.

Experiments:
[1] = target: endothelial cell receptor for TKPPR on human aortic endothelial cells (HAEC); experiment: beads perfused over HAEC in a parallel plate flow cell, 1.53 dynes/cm^2
[2] = target: endothelial cell receptor for TKPPR on human aortic endothelial cells (HAEC); experiment: fluorescent beads on confluent HAEC, static, Experiment 1, image analysis
VEGF receptors on HUVECs = experiment: competition of 125I-VEGF binding to HUVECs
[3] = target: endothelial cell receptor for TKPPR on human aortic endothelial cells (HAEC); experiment: competition on HAEC: free TKPPR 5 µM against 1% BRU-114 bubbles
[4] = target: endothelial cell receptor for TKPPR on human aortic endothelial cells (HAEC); experiment: competition on HAEC: free TKPPR 50 µM against 5% BRU-114 bubbles
[5] = target: endothelial cell receptor for TKPPR on human aortic endothelial cells (HAEC); experiment: competition on HAEC: free TKPPR 25 µM against 2% BRU-114 bubbles
[6] = target: endothelial cell receptor for TKPPR on human aortic endothelial cells (HAEC); experiment: competition on HAEC: free TKPPR 10 µM against 1% BRU-114 bubbles
[7] = target: endothelial cell receptor for TKPPR on human aortic endothelial cells (HAEC); experiment: competition on HAEC: free TKPPR 25 µM against 1% BRU-114 bubbles
[8] = target: endothelial cell receptor for TKPPR on human aortic endothelial cells (HAEC); experiment: competition on HAEC: free TKPPR 50 µM against 1% BRU-114 bubbles
[9] = target: endothelial cell receptor for TKPPR on human aortic endothelial cells (HAEC); experiment: competition on HAEC: free TKPPR 100 µM against 5% BRU-114 bubbles
[10] = target: receptor for TKPPR on rabbit aortic endothelial cells (RAEC); experiment: competition on RAEC: free TKPPR 100 µM against 5% BRU-114 bubbles
[11] = target: endothelial cell receptor for TKPPR on human aortic endothelial cells (HAEC); experiment: competition on HAEC: free TKPPR 10 µM against 10% BRU-114 bubbles
[12] = target: endothelial cell receptor for TKPPR on human aortic endothelial cells (HAEC); experiment: competition on HAEC: free TKPPR 200 µM against 1% BRU-114 bubbles
[13] = target: endothelial cell receptor for TKPPR on human aortic endothelial cells (HAEC); experiment: competition on HAEC: free TKPPR 200 µM against 5% BRU-114 bubbles
[14] = target: endothelial cell receptor for TKPPR on human aortic endothelial cells (HAEC); experiment: competition on HAEC: free TKPPR 50 µM against 10% BRU-114 bubbles
[15] = target: endothelial cell receptor for TKPPR on human aortic endothelial cells (HAEC); experiment: competition on HAEC: free TKPPR 100 µM against 1% BRU-114 bubbles
[16] = target: endothelial cell receptor for TKPPR on human aortic endothelial cells (HAEC); experiment: competition on HAEC: free TKPPR 10 µM against 5% BRU-114 bubbles
[17] = target: endothelial cell receptor for TKPPR on human aortic endothelial cells (HAEC); experiment: competition on HAEC: free TKPPR 100 µM against 10% BRU-114 bubbles
[18] = target: endothelial cell receptor for TKPPR on human aortic endothelial cells (HAEC); experiment: competition on HAEC: free TKPPR 200 µM against 10% BRU-114 bubbles
[19] = target: endothelial cell receptor for TKPPR on human aortic endothelial cells (HAEC); experiment: competition on HAEC: free TKPPR 10 µM against TKPPR-beads, average n = 11
[20] = target: endothelial cell receptor for TKPPR on human aortic endothelial cells (HAEC); experiment: competition on HAEC: free TKPPR 25 µM against TKPPR-beads, average n = 11
[21] = target: endothelial cell receptor for TKPPR on human aortic endothelial cells (HAEC); experiment: competition on HAEC: free TKPPR 50 µM against TKPPR-beads, average n = 11
[22] = target: endothelial cell receptor for TKPPR on human aortic endothelial cells (HAEC); experiment: competition on HAEC: free TKPPR 100 µM against TKPPR-beads, average n = 11
[23] = target: endothelial cell receptor for TKPPR on human aortic endothelial cells (HAEC); experiment: competition on HAEC: free TKPPR 200 µM against TKPPR-beads, average n = 11
[24] = target: endothelial cell receptor for TKPPR on human aortic endothelial cells (HAEC); experiment: competition on HAEC: free TKPPR 500 µM against TKPPR-beads, average n = 11
[25] = target: endothelial cell receptor for TKPPR on human aortic endothelial cells (HAEC); experiment: competition on HAEC: free TKPPR 10 µM against 1% BRU-114 bubbles, average of two
[26] = target: endothelial cell receptor for TKPPR on human aortic endothelial cells (HAEC); experiment: competition on HAEC: free TKPPR 10 µM against 1% BRU-292 bubbles, average of two
[27] = target: endothelial cell receptor for TKPPR on human aortic endothelial cells (HAEC); experiment: competition on HAEC: free TKPPR 25 µM against 1% BRU-114 bubbles, average of two
[28] = target: endothelial cell receptor for TKPPR on human aortic endothelial cells (HAEC); experiment: competition on HAEC: free TKPPR 25 µM against 1% BRU-292 bubbles, average of two
[29] = target: endothelial cell receptor for TKPPR on human aortic endothelial cells (HAEC); experiment: competition on HAEC: free TKPPR 50 µM against 1% BRU-114 bubbles, average of two
[30] = target: endothelial cell receptor for TKPPR on human aortic endothelial cells (HAEC); experiment: competition on HAEC: free TKPPR 50 µM against 1% BRU-292 bubbles, average of two
[31] = target: endothelial cell receptor for TKPPR on human aortic endothelial cells (HAEC); experiment: competition on HAEC: free TKPPR 2.5 µM against 1% BRU-114 bubbles, average of two
[32] = target: endothelial cell receptor for TKPPR on human aortic endothelial cells (HAEC); experiment: competition on HAEC: free TKPPR 2.5 µM against 1% BRU-292 bubbles, average of two
[33] = target: endothelial cell receptor for TKPPR on human aortic endothelial cells (HAEC); experiment: competition on HAEC: free TKPPR (head: 10 µmol; text: 10 µM) against 1% BRU-114 bubbles
[34] = target: endothelial cell receptor for TKPPR on human aortic endothelial cells (HAEC); experiment: competition on HAEC: free TKPPR (head: 10 µmol; text: 10 µM) against 5% BRU-114 bubbles
[35] = target: endothelial cell receptor for TKPPR on human aortic endothelial cells (HAEC); experiment: competition on HAEC: free TKPPR (head: 100 µmol; text: 100 µM) against 1% BRU-114 bubbles
[36] = target: endothelial cell receptor for TKPPR on human aortic endothelial cells (HAEC); experiment: competition on HAEC: free TKPPR (head: 100 µmol; text: 100 µM) against 5% BRU-114 bubbles
[37] = target: endothelial cell receptor for TKPPR on human aortic endothelial cells (HAEC); experiment: competition on HAEC: tuftsin 5 µM against 1% BRU-114 bubbles
[38] = target: endothelial cell receptor for TKPPR on human aortic endothelial cells (HAEC); experiment: competition on HAEC: tuftsin 10 µM against 1% BRU-114 bubbles
[39] = target: endothelial cell receptor for TKPPR on human aortic endothelial cells (HAEC); experiment: competition on HAEC: tuftsin 25 µM against 1% BRU-114 bubbles
[40] = target: endothelial cell receptor for TKPPR on human aortic endothelial cells (HAEC); experiment: competition on HAEC: tuftsin 50 µM against 1% BRU-114 bubbles
[41] = target: endothelial cell receptor for TKPPR on human aortic endothelial cells (HAEC); experiment: competition on HAEC: tuftsin 100 µM against 1% BRU-114 bubbles
[42] = target: endothelial cell receptor for TKPPR on human aortic endothelial cells (HAEC); experiment: competition on HAEC: BRU-305 50 µM against 2% BRU-114 bubbles
[43] = target: endothelial cell receptor for TKPPR on human aortic endothelial cells (HAEC); experiment: competition on HAEC: BRU-305 100 µM against 2% BRU-114 bubbles
[44] = target: endothelial cell receptor for TKPPR on human aortic endothelial cells (HAEC); experiment: competition on HAEC: BRU-305 200 µM against 2% BRU-114 bubbles
[45] = target: endothelial cell receptor for TKPPR on human aortic endothelial cells (HAEC); experiment: competition on HAEC: BRU-306 50 µM against 2% BRU-114 bubbles
[46] = target: endothelial cell receptor for TKPPR on human aortic endothelial cells (HAEC); experiment: competition on HAEC: BRU-306 100 µM against 2% BRU-114 bubbles
[47] = target: endothelial cell receptor for TKPPR on human aortic endothelial cells (HAEC); experiment: competition on HAEC: BRU-306 200 µM against 2% BRU-114 bubbles

B1: TKPPR-conjugated red fluorescent microspheres (peptide)
peptide: TKPPR
modifications: also: coupled by EDAC to carboxylate-modified microspheres
Q: Which beads bound at 1.53 dynes/cm^2 [1] does the source give for B1 here?
A: 86 beads

Q: And the Integrated density of bound beads (arbitrary units) [2]?
A: 230

B2: TKPPR (L-threonyl-L-lysyl-L-prolyl-L-prolyl-L-arginine), free monomeric peptide (peptide)
peptide: TKPPR-OH
Q: B2 was tested. Which IC50 (VEGF receptors on HUVECs) did it give?
A: 250 µM

Q: And the Average % Inhibition [3]?
A: 45.7%

Q: What about the Bubbles Bound [3] of the same binder?
A: 790 bubbles

Q: What about the Bubbles Bound-5% [4] of the same binder?
A: 440 bubbles

Q: And the Bubbles Bound % [5]?
A: 16 % of control

Q: And the % inhibition of bubble binding [6]?
A: 82.7%

Q: What about the Average % Inhibition [6] of the same binder?
A: 79.6%

Q: And the Bubbles Bound [6]?
A: 528 bubbles

Q: What about the Bubbles Bound-1% [6] of the same binder?
A: 10 bubbles

Q: What about the Average % Inhibition [7] of the same binder?
A: 82%

Q: And the Bubbles Bound [7]?
A: 106 bubbles

Q: And the Average % Inhibition [8]?
A: 92.7%

Q: What about the Bubbles Bound [8] of the same binder?
A: 56 bubbles

Q: And the Bubbles Bound-1% [8]?
A: 5 bubbles

Q: What about the Bubbles Bound-5% [9] of the same binder?
A: 12 bubbles

Q: What about the HAEC bubbles bound [9] of the same binder?
A: 58 bubbles

Q: What about the RAEC bubbles bound [10] of the same binder?
A: 21 bubbles

Q: And the Bubbles Bound-10% [11]?
A: 1090 bubbles

Q: And the Bubbles Bound-1% [12]?
A: 4 bubbles

Q: What about the Bubbles Bound-5% [13] of the same binder?
A: 13 bubbles

Q: And the Bubbles Bound-10% [14]?
A: 857 bubbles

Q: And the Average % Inhibition [15]?
A: 93.7%

Q: What about the Bubbles Bound [15] of the same binder?
A: 17 bubbles

Q: And the Bubbles Bound-1% [15]?
A: 4 bubbles

Q: What about the % more bubbles bound than without competitor [16] of the same binder?
A: 19%

Q: And the Bubbles Bound-5% [16]?
A: 1340 bubbles

Q: And the Bubbles Bound-10% [17]?
A: 399 bubbles

Q: What about the Bubbles Bound-10% [18] of the same binder?
A: 66 bubbles

Q: What about the % Inhibition [19] of the same binder?
A: 30.8%

Q: And the % Inhibition [20]?
A: 50.7%

Q: What about the % Inhibition [21] of the same binder?
A: 50.5%

Q: And the % Inhibition [22]?
A: 62%

Q: What about the % Inhibition [23] of the same binder?
A: 72.2%

Q: And the % Inhibition [24]?
A: 70.6%

Q: What about the Bubbles Bound-BRU-114 Formulation [25] of the same binder?
A: 535 bubbles

Q: And the Bubbles Bound-BRU-292 Formulation [26]?
A: 833 bubbles

Q: What about the Bubbles Bound-BRU-114 Formulation [27] of the same binder?
A: 75 bubbles

Q: And the Bubbles Bound-BRU-292 Formulation [28]?
A: 718 bubbles

Q: And the Bubbles Bound-BRU-114 Formulation [29]?
A: 9 bubbles

Q: And the Bubbles Bound-BRU-292 Formulation [30]?
A: 462 bubbles

Q: And the Bubbles Bound-BRU-114 Formulation [31]?
A: 1240 bubbles

Q: What about the Bubbles Bound-BRU-292 Formulation [32] of the same binder?
A: 888 bubbles

Q: And the Bubbles Bound [33]?
A: 96 bubbles

Q: And the Bubbles Bound [34]?
A: 865 bubbles

Q: What about the Bubbles Bound [35] of the same binder?
A: 5 bubbles

Q: And the Bubbles Bound [36]?
A: 62 bubbles

B3: Tuftsin (TKPR) (peptide)
peptide: TKPR
Q: How did the Bubbles Bound [37] turn out when B3 was run?
A: 1150 bubbles

Q: And the Bubbles Bound [38]?
A: 976 bubbles

Q: And the Bubbles Bound [39]?
A: 1170 bubbles

Q: What about the Bubbles Bound [40] of the same binder?
A: 904 bubbles

Q: What about the Bubbles Bound [41] of the same binder?
A: 556 bubbles

B4: TKPPR tetramer BRU-326, OG-(TKPPR)4 (peptide)
peptide: TKPPR-OH
modifications: not fully specified (N-terminus); printed as OG-(TKPPR)4; also: tetramer: four TKPPR chains joined via branched tetra-acid scaffold
Q: B4 was tested. Which IC50 (VEGF receptors on HUVECs) did it give?
A: 10 µM

B5: GRGDSP-conjugated fluorescent microspheres (peptide)
peptide: GRGDSP
modifications: also: coupled by EDAC to carboxylate-modified microspheres
Q: Which Integrated density of bound beads (arbitrary units) [2] does the source give for B5 here?
A: 28.6

B6: Linear CTKPPRC (BRU-305) (peptide)
peptide: CTKPPRC
Q: B6 was tested. Which Bubbles Bound % [42] did it give?
A: 97 % of control

Q: And the Bubbles Bound % [43]?
A: 78 % of control

Q: And the Bubbles Bound % [44]?
A: 88 % of control

B7: Cyclic disulfide CTKPPRC (BRU-306) (peptide)
peptide: CTKPPRC-OH
modifications: disulfide 1-7 (inferred)
Q: Which results are given for B7?
A: Bubbles Bound % [45]: 97 % of control; Bubbles Bound % [46]: 71 % of control; Bubbles Bound % [47]: 99 % of control
